Paper PMC6011876, “Characterization of the ATPase FlaI of the motor complex of the Pyrococcus furiosus archaellum and its interactions between the ATP-binding protein FlaH” (PeerJ, 2018)
Where two headings read alike, the source gives them in different places. Values belong to the molecule of their own block, whether it stands above or below them.

Key:
Pyrococcus furiosus FlaH = target: T1, Pyrococcus furiosus FlaH (Pyrococcus furiosus, fluorescently labeled (in the microscale thermophoresis)); assay: MST; 28 nM fluorescently labeled PfFlaH titrated with 1.3 nM-22.5 µM Pf-CTD or 5.6 nM-11.6 µM Pf-NTD; 20 mM Tris HCl pH 8.0, 150 mM NaCl, 0.05% Tween-20; Monolith NT.115 Pico; fitted to the Hill equation
T1 chain: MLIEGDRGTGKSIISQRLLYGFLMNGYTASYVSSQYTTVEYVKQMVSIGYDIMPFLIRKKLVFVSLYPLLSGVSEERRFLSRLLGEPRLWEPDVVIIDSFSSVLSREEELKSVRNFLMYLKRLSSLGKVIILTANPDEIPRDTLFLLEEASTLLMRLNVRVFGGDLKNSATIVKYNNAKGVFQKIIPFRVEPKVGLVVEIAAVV

PfFlaI [1] = target: T2, PfFlaI (Pyrococcus furiosus, UniProt Q8U3X0); assay: fluorescence titration (excitation […] nm, emission […] nm); format: binding; details: 5 mM MgCl2, 20 mM Tris HCl pH 8.0, 150 mM NaCl; 20 °C; stoichiometric titration, two sites per hexamer; labelled compound
T2 construct: gene PF0331; full length, His-tagged, overexpressed in E. coli Rosetta (DE3), 64 kDa subunit, nucleotide-free homohexamer
T2 sequence (Q8U3X0 entry or part of it): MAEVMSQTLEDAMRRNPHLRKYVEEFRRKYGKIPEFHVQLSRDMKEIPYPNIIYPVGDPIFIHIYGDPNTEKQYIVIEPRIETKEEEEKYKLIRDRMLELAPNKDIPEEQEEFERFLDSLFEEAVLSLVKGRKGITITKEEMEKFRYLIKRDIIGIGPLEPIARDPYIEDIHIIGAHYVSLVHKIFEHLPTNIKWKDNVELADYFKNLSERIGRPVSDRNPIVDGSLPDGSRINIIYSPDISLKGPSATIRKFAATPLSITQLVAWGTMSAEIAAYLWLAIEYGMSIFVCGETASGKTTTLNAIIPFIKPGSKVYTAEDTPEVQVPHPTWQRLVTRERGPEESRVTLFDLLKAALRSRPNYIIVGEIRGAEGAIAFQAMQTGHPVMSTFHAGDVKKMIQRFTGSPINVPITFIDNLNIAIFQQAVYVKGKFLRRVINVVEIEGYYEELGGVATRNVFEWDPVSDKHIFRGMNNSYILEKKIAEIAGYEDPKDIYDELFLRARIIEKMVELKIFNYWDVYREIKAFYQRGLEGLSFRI

[2] = target: Pyrococcus furiosus FlaI (Pyrococcus furiosus)
[3] = target: Pyrococcus furiosus FlaI (Pyrococcus furiosus); remark: listed apart in the source
PfFlaI [4] = target: T2, PfFlaI; assay: fluorescence competition against bound MANT-ATP; format: binding; details: 20 nM PfFlaI, 10 nM MANT-ATP; 5 mM MgCl2, 20 mM Tris HCl pH 8.0, 150 mM NaCl; 20 °C; Hill fit n = 0.67
[5] = target: Pyrococcus furiosus FlaI (Pyrococcus furiosus); assay: SEC; Superdex 200 10/300 GL; 500 µl of protein at 1 mg/ml; 20 mM Tris HCl pH 8.0, 150 mM NaCl; no nucleotide added; fractions on SDS-PAGE

Molecule: CNc1ccccc1C(=O)O[C@H]1[C@@H](O)[C@H](n2cnc3c(N)ncnc32)O[C@@H]1COP(=O)(O)OP(=O)(O)OP(=O)(O)O (mixture of isomers) [MANT-ATP, 2′-/3′-O-(N-methylanthraniloyl) adenosine 5′-triphosphate]
fluorescence titration (excitation 285 nm, emission 450 nm) (PfFlaI [1]): only two of the ATP binding sites in the hexamer are available for binding of MANT-ATP

Molecule: Pyrococcus furiosus FlaH (natural protein)
ATPase activity at 70 °C of 1 µM PfFlaI with increasing concentrations of PfFlaH; ratio at maximal stimulation (PfFlaH per PfFlaI) [2]: 1 | ATPase activity of PfFlaI at 70 °C (malachite green) on addition of PfFlaH, proteins at 1 µM [3]: 2 fold

Molecule: Nc1ncnc2c1ncn2[C@@H]1O[C@H](COP(=O)(O)OP(=O)(O)OP(=O)(O)O)[C@@H](O)[C@H]1O [ATP]
IC50 (PfFlaI [4]): 260 nM

Results, then the molecule that gave them:

Kd (Pyrococcus furiosus FlaH): > 8000 nM
Molecule: N-terminal domain of Pyrococcus furiosus FlaI (domain or fragment)

stoichiometry N [5]: 6
Molecule: Pyrococcus furiosus FlaI (enzyme)

Kd (Pyrococcus furiosus FlaH; both partners purified): 100 nM
B1: C-terminal domain of Pyrococcus furiosus FlaI (domain or fragment)
chain: LSITQLVAWGTMSAEIAAYLWLAIEYGMSIFVCGETASGKTTTLNAIIPFIKPGSKVYTAEDTPEVQVPHPTWQRLVTRERGPEESRVTLFDLLKAALRSRPNYIIVGEIRGAEGAIAFQAMQTGHPVMSTFHAGDVKKMIQRFTGSPINVPITFIDNLNIAIFQQAVYVKGKFLRRVINVVEIEGYYEELGGVATRNVFEWDPVSDKHIFRGMNNSYILEKKIAEIAGYEDPKDIYDELFLRARIIEKMVELKIFNYWDVYREIKAFYQRGLEGLSFRI
